Substrate: NC(=O)N[C@H]1NC(=O)NC1=O
Experiment: purified protein
Format: biochemical, Klebsiella pneumoniae
Conditions: 10 mM NaCl, 10 mM HEPES, pH 7.5, 25 °C, no cofactor or metal

B1: KpHpxA (K. pneumoniae allantoin racemase) (Klebsiella pneumoniae subsp. pneumoniae MGH 78578) (protein)
chain: MSSVRIQVINPNTSLAMTETIGAAARAVAAPGTEILAVCPRAGVPSIEGHFDEAIAAVGVLEQIRAGREQGVDGHVIACFGDPGLLAARELAQGPVIGIAEAAMHMATMVATRFSIVTTLPRTLIIARHLLHQYGFHQHCAALHAIDLPVLALEDGSGLAQEKVRERCIRALKEDGSGAIVLGCGGMATLAQELTRELRVPVIDGVSAAVKMVESLVALGLATSKHGDLAFPEKKALSGQFQSLNPF
kcat: 183 ± 17 s⁻¹

— publication PMC3129624
